Data reported in article doi:10.1101/2022.03.17.484533.

Columns and labels:
[1] = molecular target: LiRecT (RecT homolog from the A118 prophage of Listeria innocua) (Listeria innocua); assay: native MS
[2] = molecular target: LiRecT (RecT homolog from the A118 prophage of Listeria innocua) (Listeria innocua); assay: cryo-EM structure
[3] = molecular target: LiRecT (RecT homolog from the A118 prophage of Listeria innocua) (Listeria innocua); assay: cryo-EM structure; remark: listed apart in the source

With “LiRecT (RecT homolog from the A118 prophage of Listeria innocua) (natural protein)” the stoichiometry N [1] was < 9 subunits, the stoichiometry N [2] was 12 subunits and the stoichiometry N [3] was 18 subunits.
